The target in series [1] is hnRNP-E1 (PCBP1) wild-type (Homo sapiens) (UniProt Q15365). The following applies: Scatchard.
Series [2] addresses hnRNP-E1(C293S) (Homo sapiens) (UniProt Q15365). As to conditions: no L-homocysteine; Scatchard.
The target in series [3] is hnRNP-E1(G292A) G292A (Homo sapiens) (UniProt Q15365). As to conditions: no L-homocysteine; Scatchard.

By Kd is commonly meant the constant that tells how readily two partners part at equilibrium. Read a high Kd as weaker binding.

Where two headings read alike, the source gives them in different places.

hnRNP-E1 (PCBP1) wild-type (Homo sapiens), sequence (Q15365 whole entry A205V): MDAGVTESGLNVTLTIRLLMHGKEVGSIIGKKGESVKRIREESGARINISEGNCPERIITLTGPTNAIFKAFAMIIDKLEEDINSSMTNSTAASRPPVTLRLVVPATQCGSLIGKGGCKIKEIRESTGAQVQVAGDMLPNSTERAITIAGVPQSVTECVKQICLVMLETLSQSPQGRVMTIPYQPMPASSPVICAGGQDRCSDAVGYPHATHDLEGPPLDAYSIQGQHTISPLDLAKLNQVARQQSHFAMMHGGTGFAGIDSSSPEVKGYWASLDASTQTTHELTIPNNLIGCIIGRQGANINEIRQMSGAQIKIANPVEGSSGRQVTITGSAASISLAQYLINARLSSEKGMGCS
hnRNP-E1(G292A) G292A (Homo sapiens), sequence (Q15365 whole entry A205V/G292A): as the sequence (Q15365 whole entry A205V) above, with G292A counted along it
hnRNP-E1(C293S) (Homo sapiens), sequence (Q15365 whole entry A205V/C293S): as the sequence (Q15365 whole entry A205V) above, with C293S counted along it

“18-nt folate receptor-alpha mRNA cis-element”: the Kd in series [1] (10 uM L-homocysteine) turned out to be 890 pM; in series [1] (50 uM L-homocysteine) it was 470 pM; in series [1] (no L-homocysteine), 1470 pM; in series [2] it was 270 pM; in series [3] it was 1570 pM.

These data come from patent US10093706.
